Measured values published in patent US20260286413A1, “HYALURONAN SYNTHESIS, SECRETION AND LENGTH CONTROL” (UNIVERSITY OF VIRGINIA, priority 2023, published 2026).

B1: W491A: X1HAS1 mutant, Trp491 of WGTSGRK/R motif replaced with Ala (protein, UniProt P13563 1-588, looked up, variant W491A)
Hyaluronan synthase 1: MKEKAAETMEIPEGIPKDLEPKHPTLWRIIYYSFGVVLLATITAAYVAEFQVLKHEAILFSLGLYGLAMLLHLMMQSLFAFLEIRRVNKSELPCSFKKTVALTIAGYQENPEYLIKCLESCKYVKYPKDKLKIILVIDGNTEDDAYMMEMFKDVFHGEDVGTYVWKGNYHTVKKPEETNKGSCPEVSKPLNEDEGINMVEELVRNKRCVCIMQQWGGKREVMYTAFQAIGTSVDYVQVCDSDTKLDELATVEMVKVLESNDMYGAVGGDVRILNPYDSFISFMSSLRYWMAFNVERACQSYFDCVSCISGPLGMYRNNILQVFLEAWYRQKFLGTYCTLGDDRHLTNRVLSMGYRTKYTHKSRAFSETPSLYLRWLNQQTRWTKSYFREWLYNAQWWHKHHIWMTYESVVSFIFPFFITATVIRLIYAGTIWNVVWLLLCIQIMSLFKSIYACWLRGNFIMLLMSLYSMLYMTGLLPSKYFALLTLNKTGAGTSGRKKIVGNYMPILPLSIWAAVLCGGVGYSIYMDCQNDWSTPEKQKEMYHLLYGCVGYVMYWVIMAVMYWVWVKRCCRKRSQTVTLVHDIPDMCV
B2: W491F: X1HAS1 mutant, Trp491 replaced with Phe (protein, UniProt P13563 1-588, looked up, variant W491F)
Hyaluronan synthase 1: MKEKAAETMEIPEGIPKDLEPKHPTLWRIIYYSFGVVLLATITAAYVAEFQVLKHEAILFSLGLYGLAMLLHLMMQSLFAFLEIRRVNKSELPCSFKKTVALTIAGYQENPEYLIKCLESCKYVKYPKDKLKIILVIDGNTEDDAYMMEMFKDVFHGEDVGTYVWKGNYHTVKKPEETNKGSCPEVSKPLNEDEGINMVEELVRNKRCVCIMQQWGGKREVMYTAFQAIGTSVDYVQVCDSDTKLDELATVEMVKVLESNDMYGAVGGDVRILNPYDSFISFMSSLRYWMAFNVERACQSYFDCVSCISGPLGMYRNNILQVFLEAWYRQKFLGTYCTLGDDRHLTNRVLSMGYRTKYTHKSRAFSETPSLYLRWLNQQTRWTKSYFREWLYNAQWWHKHHIWMTYESVVSFIFPFFITATVIRLIYAGTIWNVVWLLLCIQIMSLFKSIYACWLRGNFIMLLMSLYSMLYMTGLLPSKYFALLTLNKTGFGTSGRKKIVGNYMPILPLSIWAAVLCGGVGYSIYMDCQNDWSTPEKQKEMYHLLYGCVGYVMYWVIMAVMYWVWVKRCCRKRSQTVTLVHDIPDMCV
B3: T493A: X1HAS1 mutant, Thr493 replaced with Ala (protein, UniProt P13563 1-588, looked up, variant T493A)
Hyaluronan synthase 1: MKEKAAETMEIPEGIPKDLEPKHPTLWRIIYYSFGVVLLATITAAYVAEFQVLKHEAILFSLGLYGLAMLLHLMMQSLFAFLEIRRVNKSELPCSFKKTVALTIAGYQENPEYLIKCLESCKYVKYPKDKLKIILVIDGNTEDDAYMMEMFKDVFHGEDVGTYVWKGNYHTVKKPEETNKGSCPEVSKPLNEDEGINMVEELVRNKRCVCIMQQWGGKREVMYTAFQAIGTSVDYVQVCDSDTKLDELATVEMVKVLESNDMYGAVGGDVRILNPYDSFISFMSSLRYWMAFNVERACQSYFDCVSCISGPLGMYRNNILQVFLEAWYRQKFLGTYCTLGDDRHLTNRVLSMGYRTKYTHKSRAFSETPSLYLRWLNQQTRWTKSYFREWLYNAQWWHKHHIWMTYESVVSFIFPFFITATVIRLIYAGTIWNVVWLLLCIQIMSLFKSIYACWLRGNFIMLLMSLYSMLYMTGLLPSKYFALLTLNKTGWGASGRKKIVGNYMPILPLSIWAAVLCGGVGYSIYMDCQNDWSTPEKQKEMYHLLYGCVGYVMYWVIMAVMYWVWVKRCCRKRSQTVTLVHDIPDMCV
B4: T493S: X1HAS1 mutant, Thr493 replaced with Ser (protein, UniProt P13563 1-588, looked up, variant T493S)
Hyaluronan synthase 1: MKEKAAETMEIPEGIPKDLEPKHPTLWRIIYYSFGVVLLATITAAYVAEFQVLKHEAILFSLGLYGLAMLLHLMMQSLFAFLEIRRVNKSELPCSFKKTVALTIAGYQENPEYLIKCLESCKYVKYPKDKLKIILVIDGNTEDDAYMMEMFKDVFHGEDVGTYVWKGNYHTVKKPEETNKGSCPEVSKPLNEDEGINMVEELVRNKRCVCIMQQWGGKREVMYTAFQAIGTSVDYVQVCDSDTKLDELATVEMVKVLESNDMYGAVGGDVRILNPYDSFISFMSSLRYWMAFNVERACQSYFDCVSCISGPLGMYRNNILQVFLEAWYRQKFLGTYCTLGDDRHLTNRVLSMGYRTKYTHKSRAFSETPSLYLRWLNQQTRWTKSYFREWLYNAQWWHKHHIWMTYESVVSFIFPFFITATVIRLIYAGTIWNVVWLLLCIQIMSLFKSIYACWLRGNFIMLLMSLYSMLYMTGLLPSKYFALLTLNKTGWGSSGRKKIVGNYMPILPLSIWAAVLCGGVGYSIYMDCQNDWSTPEKQKEMYHLLYGCVGYVMYWVIMAVMYWVWVKRCCRKRSQTVTLVHDIPDMCV
B5: K218A: X1HAS1 mutant, Lys218 replaced with Ala (protein, UniProt P13563 1-588, looked up, variant K218A)
Hyaluronan synthase 1: MKEKAAETMEIPEGIPKDLEPKHPTLWRIIYYSFGVVLLATITAAYVAEFQVLKHEAILFSLGLYGLAMLLHLMMQSLFAFLEIRRVNKSELPCSFKKTVALTIAGYQENPEYLIKCLESCKYVKYPKDKLKIILVIDGNTEDDAYMMEMFKDVFHGEDVGTYVWKGNYHTVKKPEETNKGSCPEVSKPLNEDEGINMVEELVRNKRCVCIMQQWGGAREVMYTAFQAIGTSVDYVQVCDSDTKLDELATVEMVKVLESNDMYGAVGGDVRILNPYDSFISFMSSLRYWMAFNVERACQSYFDCVSCISGPLGMYRNNILQVFLEAWYRQKFLGTYCTLGDDRHLTNRVLSMGYRTKYTHKSRAFSETPSLYLRWLNQQTRWTKSYFREWLYNAQWWHKHHIWMTYESVVSFIFPFFITATVIRLIYAGTIWNVVWLLLCIQIMSLFKSIYACWLRGNFIMLLMSLYSMLYMTGLLPSKYFALLTLNKTGWGTSGRKKIVGNYMPILPLSIWAAVLCGGVGYSIYMDCQNDWSTPEKQKEMYHLLYGCVGYVMYWVIMAVMYWVWVKRCCRKRSQTVTLVHDIPDMCV
B6: K218R: X1HAS1 mutant, Lys218 replaced with Arg (protein, UniProt P13563 1-588, looked up, variant K218R)
Hyaluronan synthase 1: MKEKAAETMEIPEGIPKDLEPKHPTLWRIIYYSFGVVLLATITAAYVAEFQVLKHEAILFSLGLYGLAMLLHLMMQSLFAFLEIRRVNKSELPCSFKKTVALTIAGYQENPEYLIKCLESCKYVKYPKDKLKIILVIDGNTEDDAYMMEMFKDVFHGEDVGTYVWKGNYHTVKKPEETNKGSCPEVSKPLNEDEGINMVEELVRNKRCVCIMQQWGGRREVMYTAFQAIGTSVDYVQVCDSDTKLDELATVEMVKVLESNDMYGAVGGDVRILNPYDSFISFMSSLRYWMAFNVERACQSYFDCVSCISGPLGMYRNNILQVFLEAWYRQKFLGTYCTLGDDRHLTNRVLSMGYRTKYTHKSRAFSETPSLYLRWLNQQTRWTKSYFREWLYNAQWWHKHHIWMTYESVVSFIFPFFITATVIRLIYAGTIWNVVWLLLCIQIMSLFKSIYACWLRGNFIMLLMSLYSMLYMTGLLPSKYFALLTLNKTGWGTSGRKKIVGNYMPILPLSIWAAVLCGGVGYSIYMDCQNDWSTPEKQKEMYHLLYGCVGYVMYWVIMAVMYWVWVKRCCRKRSQTVTLVHDIPDMCV
B7: R381K: X1HAS1 mutant, Arg381 replaced with Lys (protein, UniProt P13563 1-588, looked up, variant R381K)
Hyaluronan synthase 1: MKEKAAETMEIPEGIPKDLEPKHPTLWRIIYYSFGVVLLATITAAYVAEFQVLKHEAILFSLGLYGLAMLLHLMMQSLFAFLEIRRVNKSELPCSFKKTVALTIAGYQENPEYLIKCLESCKYVKYPKDKLKIILVIDGNTEDDAYMMEMFKDVFHGEDVGTYVWKGNYHTVKKPEETNKGSCPEVSKPLNEDEGINMVEELVRNKRCVCIMQQWGGKREVMYTAFQAIGTSVDYVQVCDSDTKLDELATVEMVKVLESNDMYGAVGGDVRILNPYDSFISFMSSLRYWMAFNVERACQSYFDCVSCISGPLGMYRNNILQVFLEAWYRQKFLGTYCTLGDDRHLTNRVLSMGYRTKYTHKSRAFSETPSLYLRWLNQQTKWTKSYFREWLYNAQWWHKHHIWMTYESVVSFIFPFFITATVIRLIYAGTIWNVVWLLLCIQIMSLFKSIYACWLRGNFIMLLMSLYSMLYMTGLLPSKYFALLTLNKTGWGTSGRKKIVGNYMPILPLSIWAAVLCGGVGYSIYMDCQNDWSTPEKQKEMYHLLYGCVGYVMYWVIMAVMYWVWVKRCCRKRSQTVTLVHDIPDMCV

How the values were obtained:
[1] = system: X1HAS1; test: Substrate turnover rate quantification (UDP release, enzyme-coupled assay); assay type: biochemical, Xenopus laevis; settings: UDP release; for substrate turnover rate / catalytic rate relative to WT: normalized to WT
Experimental: UDP release during HA synthesis was quantified using an enzyme-coupled assay as previously described (10, 13). Depletion of NADH was monitored at 340 nm every 60 s for 3 hours at 37° C. in a SpectraMax instrument. The raw data was processed in MS Excel and a linear phase of each reaction was determined. The rate of NADH depletion was converted to pmoles of UDP released using a UDP standardized plot (FIG. S1C) for Michaelis-Menten constant determination using GraphPad Prism. For substrate turnover rate quantification of X1HAS1 mutants, pmoles of released UDP were converted to the number of corresponding substrate turnovers per molecule of X1HAS1, per minute. Data is presented relative to wild type activity. All experiments were performed in four to eight replicates and error bars represent standard deviation from the means.
HAS transfers the UDP-activated glycosyl unit (the donor sugar) to the non-reducing end of the nascent HA polymer (the acceptor sugar). This reaction generates UDP and elongated HA as reaction products (FIG. 1A). Catalytic activity can be assessed by monitoring the release of UDP in an enzyme-coupled reaction, as previously described (10, 13), or quantifying HA, either radiometrically or by dye staining following electrophoresis.

[2] = system: X1HAS1; test: Electrophoretic HA size determination (agarose gel, Stains-all) of in vitro synthesized HA; assay type: biochemical, Xenopus laevis; settings: for HA product versus WT: short and long reactions (1 h or 8 h), not distinguished
Experimental: To assess the size of HA synthesized by X1HAS1, similar reaction conditions were applied to the ones described above. […] […] Controls were carried out by digesting the synthesized polymers with hyaluronidase. Synthesis reactions were mixed with SDS-PAGE loading dye and applied to a 1% agarose gel (Ultra-pure agarose, Invitrogen) casted in an Owl B2 system (ThermoFisher). […] After the run, the gel was equilibrated in 50% ethanol for 1.5 h and subjected to staining in 0.05% Stains-all (Sigma) in 50% ethanol overnight under light-protection. Post-staining background was reduced by soaking the gel in 20% ethanol for 3-7 days in the dark. The migration of the synthesized HA species was compared to HA standards from Streptococcus equi (Sigma), as well as enzymatically generated ladders: HA LoLadder and HA HiLadder (Hyalose).

Molecule | substrate turnover / catalytic activity compared to WT [1] | HA product versus WT, short reaction [2] | substrate turnover rate / catalytic rate relative to WT [1] | HA size difference versus WT product ([2]; from differences in electrophoretic mobility) | HA product versus WT [2]
B1 | abolished | abolishes HA biosynthesis |  |  | 
B2 | reduced | lower molecular weight product |  |  | 
B3 |  | exceeding the size of the WT product | 20-25% |  | 
B4 |  | exceeding the size of the WT product | 20-25% | up to 0.5 MDa | 
B5 | abolishes |  |  |  | abolishes
B6 | abolishes |  |  |  | abolishes
B7 | cannot be replaced |  |  |  | 
